# Source: the DeepSol protein solubility set
# Assay: soluble on expression in E. coli; label from the status in PepcDB or PDB records
row,Sequence,soluble on expression in E. coli
1,MNRMRWVGEGDIWDLDMSTPVTLEGTARAVPDDPLPLGLSRGTRLSRPKQVEFFHRFMASPLIPSFSPIRPNTGDGGGGGFSLQRVLTLPFSNNWLVSLLGQFDVQRFVTEIDKTKAFGRGSSSTVASRLNTIGKHLKDKSLYALGFCSEFLLSPDDTLLLSYDAYKGDLDKNPRAKAIFNHEFPLHNLTAEAVWPGLFVDKHGEYWDVPLSMAIDLASLPAESGPSYHLCLHHNSGSPKKLHSDTMEVPPPSLLPGLSLKSAVSYRTNMDLWRGTTPKLETCKPYDVFLSSPHVAVSGIIGSVMTAAFGENSIRSKFENDSEGVGGFSLHFPSVNSGFMADALGRASLTAQYGNFQKFFFDLTRFHARLDFPHGLRFLTGATSVAQDLLNSRQPSLEAFQKICPEVLVSLQQQIVGPFSFKVESGIEIDLRNGANPVTVDKTVFAIEYALQVLLSAKAVVSYSPKQNEFMVELRFFET,soluble
2,MNRREANALDRYLTEPTEKPHKETYEDDPVDTTDYFGNEIADEDGVFEITFAMKCLYTGQPVLTCKKIATQDTIVDLIEELGEENVYLIEYVSSGKRYKEGLLND,not soluble
3,MNRTAMRASQKDFENSMNQVKLLKKDPGNEVKLKLYALYKQATEGPCNMPKPGVFDLINKAKWDAWNALGSLPKEAARQNYVDLVSSLSPSLESSSQVEPGTD,soluble
4,MNRYRKILVAGIIDQEEQPALKRALDIANRTTKPSEITLFCTTYDFSYEMTSMLSADERMAMRNGVVSQKVKMLNDVIADYSKSDHVTITIKVVWHNRPYEAIINEIFDDSYNILIKATRQHAKLETVFFTPTDWHLLRKSPIPVLLVKERPWPENGNILASVHVGSENPAHLQLNDKMVDEAIYFAEVLNSTPHLVNAYPSTPPSIHVELPEFNAVQYKDAIRGHHLTQMKALRQKYGIPEEQTHVYEGPTEEVISEVEDELTAGLVILGTTGRTGLSAIFIGNTAENTLDLLNCDILALKPDGYISPLDPNHIS,not soluble
5,MNSAGLEQCGMIMTRKNYYITTDGLLKRNENTLYFINKDLKRPIPINKIYSIYSYGALTISSQALNLLSKEGIPIHFFNRYGFYSGSFYPRETLLSGDVIIKQAEHVIDHDKRIELARSFVRGAALNMRRVLSYYGIENGISDTLMDLDSSNSVTDVMNVEGRIRSDYYNAIDSILPEGFRIGKRTRRPPENMTNAMISFGNSLLYSTVITELYNTQLNPTISYLHEPFERRYSLALDLSEIFKPTLIDRMIISLIKKKAIKAEDFEHGMNHCLLNNSGKRKFLAEYDRRLGKTVKHRELGRKVSYRRLIRLEAYKLIKHLIGQKSYEPFVMWW,not soluble
6,MNSALYANYLNILKQELVPALGCTEPIAIAYAAAKAHQVLGEFPDSVNMSLSGNIIKNVKGVTVPNSGGLKGIDVAAILGIVGGNADKALEVLSEITEDDIARTRELVKQHVCSCSLVEGVDNLYITAKVIKGDHFASVTIEHQHTNITRIEKDGEVILDNPYQAECKTVIDKSKLTVKDILDFADQVRIEDVQPIIDRQIKLNSAIAQEGLDNNYGAQIGKTLMHVWGKSVTTRACARAAAGSDARMGGCSMPVVINSGSGNQGMTVSLPVIVFADEWEVSHEKLCRSLVVSNLIAIHQKYYIGSLSAYCGAVSAACGAGAGITYMYGGTYQQVSLTIINTLGNVGGIVCDGAKPSCAAKIASSVDAALMAFQLSIQNKSFLPGEGIIKDDIEETIKSMGYIGRVGMRSTDTEILNVMIDRADINQGC,not soluble
7,MNSAPKLNTFQHLIGEHQTFLEAKRIAKQFSLSELPVLITGKIGTGKNHFAHAIHLESSRSNEPFISVNCSTHSEETLIHELFGPNGNTGVFQKAVRGTLFLDDVWRMPASVQAQLLKALDSDTEKPRMICASADRSVEHTFRQDLFYRLNILTLTLPELSERKSDIPLLTQHFLSNSGQQLLIDPSVFPVLEKHAFEGNVRELKNAADYMAAVSSGGTIQPYDLPPYIRGTIDGKTSKKKAKLLTLMEKAEFLFILETIKVLNEKGEPASRRIISEHSKNTQTSLTPQQVRSRLDYLEKKDYVTKSRGRAGTKITFEGLSFIETLKNQMILEHHHHHH,soluble
8,MNSITCPKCGTECDKLFDSVCRDCFFETFKLIDLPLVLHVKICSSCGAYFHRSRWENIGNLEEVVLKAVENALFIHDEAGDVELYLEPKEITPYIYMVRAEVDAIVRGEPVHAEAATEVRVQRIACDMCSRESGGYFEAIIQIRAAGRFPTEEEKRRCSAIAREAMESMKKKGDRLAFISDYQEQKEGIDLYMGSMNASRQVCRMIISELGGSFAESPTLVGMKDGKNLYRITFAMRLPEFRPGDVIRFRGRIIQIRSSGKKVNGISLEDGSRFLSTPEELKGAEKIANIGDAVLTVLVSIEENAILVLDPETYETVAIKKPMFFNAEAGSEIPVLKTEYGIFALAHTDIPQEKLEHHHHHH,soluble
9,MNSLDSQITALYTLAHELLYLGSDGSPIYSDHFSRLNGDVLSRANTLYPHHGSTDEEEARLCLSLLMGYNATIYNNGDKEVRIQQILNRCWEVLDRLPASLLKVRLLTYCYG,not soluble
10,MNSLSLPHRYPFLFIDGVTDSEPGKHAAAYKLISENDWFITDTQTEMPFSLVIEGLRKPRLLQELQMRTAWDYCLRKRKSWEKLCLVTGLILRLKSRAIGAGLCSDMPRHQLESSLLLKLKSASILKNEKNPSQHFVRGSILCRNPVRFESYLFAGVCVFHHSYFPSALHLEHHHHHH,not soluble
11,MNSLSTEQLGIGYGDRVIVEDLNISIPKGKITTLIGPNGCGKSTILKTMSRIMRSHAGAVYLNGKAIHKMSTKDIAKDMAILPQTPEAPSGLTVHELVSYGRFPHQSGFGRLNDEDRRIIKWALEETGMAEYAERPIEALSGGQRQRVWIAMALAQGTELLLLDEPTTYLDLAHQLEILQLLDRLNKEQGRTILMVIHDLNHAARFSHYMIALKKGTVIKEGTALEVMTPDILKQVFQIDAEIVTDPRTNKPVCLTYDLIKNEKELVTV,not soluble
12,MNSQQEWEHAYSLAERMYNKQAPTKREELNPTERVICSRFETIFDYDPFKDEYTFRDQALLFSTPVQPKCRTVAEADLHELKENTAKLNIPMPSYINICPIYALLPFTVLVFNNSQHAHKSLSDDMERAAATFRNPHESEIVPGAMYIFKQKHGKAYRCIILSEDGDMNIPDAERKYLVAFIDNVQIVSVKQKTLFVSDQFSIKDYPCALHCARIVGISAIRKSYVSGMNQFILNFYDAKEKRKAGMFAFIYKLDKEEKKLVIDYPSLLGTPKTTSTEIRTAVGHQIVASKDPVSLTFEQLNKKEVPEFKYLNSTDDDSDVELDLIEHDTKSVNPVASSHPTSSSMDDCPYGRASIARAKDYQLRLPPHSQKGLSSSSLLGSSYPVSNSIKNDITKQSESNRADATNISFSSFESTKSDISPQNNQNVEETSTPTVPPNSTIQENEEDEIMSPASIIRAPSRLAGSLNKVSIERPNTPLPTSSKNSEHNMSEISTYEASSISSHHLVPQSPSVPKTNYTVPVVQRPLTAPEKFRDPFGGPGSSDILNTKMLCSEKNIVPSNKFGRQISPGKDDKNENYQYSRMETKPQTLFAPVLDENQRQSSSSNMMCQIPDISSVAQVGFL,not soluble
13,MNTFTACVERGENWWVAQLVEDPGVIVQARRLDQIQEEIRDALALFPKLTDSPETASVHLDLVGEIEQKAQATRDQLAAIRECEAHELANMSQHARRLQAAGVLRDSMQIASGSQAARS,not soluble
14,MNTIVVAQLQRQFQDYIVSLYQQGFLDNQFSELRKLQDEGTPDFVAEVVSLFFDDCSKLINTMSISLERPDNVDFKQVDSGVHQLKGSSSSLCFVLSVGARRVKNVCISFKECCDVQNREGYSSNSHTNCDNDIWHRCLRCLQQVDYEYKMLKTKLQDLFNVSFKLCENLLVLLLEKQILQAGGTIPQVDIN,soluble
15,MNTKYNKEFLLYLAGFVDGDGSIIAQIEPNQSYKFKHRLKLTFKVTQKTQRRWFLDKLVDEIGVGYVSDSGSVSNYILSEIKPLHNFLTQLQPFLKLKQKQANLVLKIIEQLPSAKESPDKFLEVCTWVDQIAALNDSKTRKTTSETVRAVLD,soluble
16,MNVCFFPRLKEFILNQDWNDPKSQLQQCCLTLRTEGKEPDIPLYKTLQTVGPSHARTYTVAVYFKGERIGCGKGPSIQQAEMGAAMDALEKYNFPQMAHQKRFIERKYRQELKEMRWEREHQEREPEEAEDIKK,soluble
17,MNVILFDGICNLCNGAVTFVVKRDRKGLFRFVSLQSETGKSLLKRYAVESTNKTLYYFRNNRCYSKSTAILYILKDLGGFWQCLYPLILIPAKLRDAIYLLVSKYRYRIFGKADSCIKPFGFSSEESKRSDLEHHHHHH,not soluble
18,MNVNKPTTEKKLIDLNNDIIHNFDVSIVMSFYKRYTEFRKVLPHNAPYLQRNGIEVIIVLDDPDEKSELLMLLQNYPFINWKLIINERKHAPRNHASVLNVGLKHATKKYILQIDPEVEFLTDIIWQMRDAIEKYPMHYILAMMAYVPYEQELTENNIKELDFIPWGNLMVERNHLYKLHGYDETFITWGGEDNNMRARLDMSGIKKFILPEAKTIHREKNYDPNERSKRINKHSISDWRKMNYPSEAIANKDIWGSEFNKVIYDWQDNQYAKDLCYTYLQQFIGFEIRHPAAFRKRHKKIVLCQAYNEEKLIEGFLTNMANYFDGIILLDDESTDRTWDLAIHDKIILKVKKKRSGFNDLENRNILLDLSAFFQSEWFCFMDIDERFDERFTNFSEFENNKEIHVVSFRGVYLWNDEQSYKGDIPNSNKGILTVYRMFRPIGHTHINTHKKLHFIATPYFTNTWQSNILFKDYGSMKENDRIRKYERYIQEDQQKDMSSGYDYLLNSENLYQLDKIEEYLEHHHHHH,not soluble
19,MNVVVERKNVRNVRIQVLADGKVRVVAPPDFDVDSFISKHADWIKKKRAEIESLAEEIKGKERMLLLNGKFYHLVKDSGFEIKEGEEVGVVKYYSLRNLKRNLASILREELKRNVSFYSRLLGINYGRIFIKMQKTKWASCSSKGNLSFNLASLALPEKLREYIVVHELVHLLEPKHSRLFWETVGFYYPEYEEAERELKKYWIFVERNEVWRMLRALK,soluble
20,MNWHPAACKISAKGGYLRVIIDASNVAHSRKNDEEKPCIENILSAAEELEKLGYEPVIIADASLRHEIDDKEQFRKLLEEGKFQQVPSGTSADHFILKMAEEEDAKILSNDVFRDYKDEFQDINSRRIPYTFREDKILIGTSGKPKKVKNILQKICNEALREFERKRIDAYKVKRGKKLSGIAIAKEAIDRISRSQEEGLEPRLEGIFMKLPLFERFMSMVEEVERTSNYIIFVLVHPKDYRDAVKYAGNIAVTVGDRLKLEHAPLVAVRNDLFLKPGTFELNIMYSEDVMEEAPYNVNITINDHDYSFVKKNSRNIASTLAARIGSWRFPIVSVKPSMLLEKPGEFEVVLEKGGNDLEHHHHHH,soluble
